# Reference: patent US8119364B2, “Methods for generating analogs of coenzyme A” (The Regents of the University of California, priority 2005, dated 2012)
# Substrate: CC(C)(CO)[C@@H](O)C(=O)NCCC(=O)O
# Test: Kinetic assay of pantetheine analogs as substrates of PanK
# Type: biochemical
# Settings: other: compound as substrate of E. coli PanK
# Method: As mentioned earlier, phosphorylation of the primary hydroxyl group of pantothenate by the first protein in the CoA biosynthesis pathway, PanK, is believed to be the rate limiting step in vivo. Jackowski and Rock, J. Bacteria 148:926, 1981. Due to its role as the gatekeeper of CoA biosynthesis, each of the new analogs was assayed for kinetic activity with PanK (Table 2).
# The assay was performed as previously described using the prototypical bacterial PanK, CoAA from E. coli. Kumar and Aldrich, Org. Lett. 5:613, 2003. The reaction of CoAA with the natural substrate pantothenate gave values that conformed to those previously reported in the literature. Worthington and Burkart, Org. Biomol. Chem. 4:44, 2005; Strauss and Begley, J. Biol. Chem. 277:48205, 2002. […] Conversely, compounds with PEG linkers between the pantoic acid moiety and the bioorthogonal terminus were poor substrates for CoAA.
protein,measurement,value
E. coli PanK (CoAA) (Escherichia coli K-12) (protein) MSIKEQTLMTPYLQFDRNQWAALRDSVPMTLSEDEIARLKGINEDLSLEEVAEIYLPLSRLLNFYISSNLRRQAVLEQFLGTNGQRIPYIISIAGSVAVGKSTTARVLQALLSRWPEHRRVELITTDGFLHPNQVLKERGLMKKKGFPESYDMHRLVKFVSDLKSGVPNVTAPVYSHLIYDVIPDGDKTVVQPDILILEGLNVLQSGMDYPHDPHHVFVSDFVDFSIYVDAPEDLLQTWYINRFLKFREGAFTDPDSYFHNYAKLTKEEAIKTAMTLWKEINWLNLKQNILPTRERASLILTKSANHAVEEVRLRK,Km,28.56 ± 1.77 µM
same,kcat,0.521 ± 0.00967 s⁻¹
same,kcat/Km,18200 ± 680 M⁻¹ s⁻¹
